Data published in paper PMC11098746 (2024).

B1: 88 (protein)
chain: FENAIKKTKNQENNLALLPIKSTEEEKDDIKNGKDIKKEIDNDKENIKTNNAKDHSTYIKSYLNTNVNDGLKYLFIPSHNSFIKKYSVFNQINDGMLLNEKNDVKNNEDYKNVDYKNVNFLQYHFKELSNYNIANSIDILQEKEGHLDFVIIPHYTFLDYYKHLSYNSIYHKSSTYGKCIAVDAFIKKINEAYDKVKSKCNDIKNDLIATIKKLEHPYDINNKNDDSYRYDISEEIDDKSEETDDETEEVEDSIQDTDSNHAPSNKKKNDLMNRAFKKMMDEYNTKKKKLIKCIKNHENDFNKICMDMKNYGTNLFEQLSCYNNNFCNTNGIRYHYDEYIHKLILSVKSKNLNKDLSDMTNILQQSELLLTNLNKKMGSYIYIDTIKFIHKEMKHIFNRIEYHTKIINDKTKIIQDKIKLNIWRTFQKDELLKRILDMSNEYSLFITSDHLRQMLYNTFYSKEKHLNNIFHHLIYVLQMKFNDVPIKMEYFQTYKKNKPLTQ
modifications: bait human Fc-tagged dimer
B2: 54 (protein)
chain: DQLDMGSVHNNNAVVGNSASHSPSSSSSSPSSSSSSSSSSPSASSSSSSSSPASSSSSPSSTSDDSKNAALDKIDEELQKKKKNEKL
modifications: bait human Fc-tagged dimer
B3: 14 (protein)
chain: KNINLNDEGKKKQSGIINENEDGKNNKANNNKKVQHNKINRKGNNAVTKKTDEHKNDGDAENKKNGEHKNDGDGKNKKNGEHKNDGDGKNKKMDEHLYDIDGENKKNGEHLYDVDGENKKNGEHLYDIDGENKKNGEHLYDIDGENKKTDEHLYDVDGGKNNILEYNNIDQHNEFPESLENDNSYDKLFDDVELRDIIHNEKFFENLKNVNNNDVHNFLLVDKEMERRKEEEKKKSRKLEEDEEDDEDEEEDNDEKWKEENKNNAASSSSSSSNNFNKNYDIYDNRDLYNYDNLVDITQEEHINVPNINDEINEGRKHDKEDFLIFEKRLNEAEDRNDASDGDNKMEDLINNHFDDSGDNGAYENIQVKKELYNKNEKIIKGRDNNLNDGDIHMNKNNAANKLNNNNNNNNNDNNMNSEMKYKTFKEEYEEQILSKP
modifications: bait human Fc-tagged dimer
B4: 20 (protein)
chain: DIIIVDSNKDIQGFDPNSVLNLAENVFNIFLDTKTNNADIKTVYSSIFSNSKVTIDGTCSSMKELIKGRSLKYLDELGTEEYVNSDDVFNFAIFVYTVNGQPDIIQQVYKKHPNYISYIITCKESELFDNIEDAKDNKNVFHTNP
modifications: bait human Fc-tagged dimer
B5: 69 (protein)
chain: IYYCNDNILENANNDDSTKDINNINKNSANKAKSEKTSNYNNDQYNIDDAYNEDEENDEEEGDDDENDHFEVPINCAGGNCFDSMDDINKIIDNKKKKMKYRRRRGKAIQIIKPNVNHAELIIIEENLEIFKRIDKPIAIVSVLGDMHTGKSFLLNLLNEHVIPDINKANKYIENGFKVGNDITASTYGIWIWSEPIRINVKKLKKIYEYINENFANFIKSYEYEKDEYNEEIIDLLNLYKTDDWISNVEELNLADTDEVNLILMDTQGLNSPNVNKRYDEILYALTNLISTDIIFLTMKMINNKDLEFIENIAKDANLFMLRAYTRSSGSTFSIKKNNFHKILDTLNNNLENNALILESIASKNLMWVVHDFSQRLDVRKGKLWLDILLNSDRRDLDIKYWKKIISNKAKDKHDAYTTKKQKIAYLTYNENSASGLLPNNNNNNNNANDASSNYKLNILYKNIDCVLLRNMYHNKEFDFTKANINDLNEEYKNDVLLLRYKIYLRALLFPKKMYSDVQINNIINKIRKEQKLREEQEKNKDNKKNDANNQANDLNSNKDETSGSQVTNRFMSGHDVYDFITFLVKSANQNLFTNVNQFFKHFKINRAEISRNDLIFLYKKYLLQFMENEDVEFISNLNDENDDLFLQKEGNNAAVNHDENSDADSLFNDHDENMQLKEHNIKDGEDNTHQKKDSYKLPPLLNEIKKYEELIREQILNIWYKYTESDFHDEEEKELIKDIENNLYERLDQIKIEMLELGEMNIRKFCKIACEDALQIVVEDIKMKSDQYPIKQKDLTTFFESVSYNLIKYLEKKLSKNSDKLDLIYYKDNICSPLINNAFQEFYFLKKKNIALNENRLKSYFSNAVEKGKEVFEVLAENTENIAEYFKNKNMFYTVLDKWTSEAINTYTLTLSDFAKEEKEINDEYLNVLNNDIKLLKQKAMEKWHNHCRDKTSALYNMHKSNLKKNFLENFNFPLDELVLQDIFLNLKGQEELKYMDIYCANEDSWNSEYKNFLKLTDEIFQFIKDENLKAIQITCQQPLDELKNGIKGEIHKYYLWSSLKSTLYNRALIVLSSNIENIYIKNQRENKIQSNLDEKYNNKNKNYKRISKDLMSKVINRWLNNDIYNVYYP
modifications: bait human Fc-tagged dimer
B6: 63 (protein)
chain: FRGNNGHNSASSLYNGAQFIEQLNNAFTSAFLESQSMNKIGDDLAETISNELVSVLQKNSPTFLESSFDIKSEVKKHAKSMLKELIKVGLPSFENLVAENVKPPKVDPATYGIIVPVLTSLFNKVETAVGAKVSDEIWNYNSPDVSESEESLSDDFFD
modifications: bait human Fc-tagged dimer
B7: 29 (protein)
chain: QNYWEHPYQNSDVYRPINEHREHPKEYEYPLHQEHTYQQEDSGEDENTLQHAYPIDHEGAEPAPQEQNLFSSIEIVERSNYMGNPWTEYMAKYDIEEVHGSGIRVDLGEDAEVAGTQYRLPSGKCPVFGKGIIIENSNTAFLTPVATGNQYLKDGGFAFPPTEPLMSPMTLDEMRHFYKDNKYVKNLDELTLCSRHAGNMIPDNDKNSNYKYPAVYDDKDKKCHILYIAAQENNGPRYCNKDESKRNSMFCFRPAKDISFQNYAYLSKNVVDNWEKVCPRKNLQNAKFGLWVDGNCEDIPHVNEFPAIDLFECNKLVFELSASDQPKQYEQHLTDYEKIKEGFKNKNAAMIKSAFLPTGAFKADRYKSHGKGYNWGNYNTETQKCEIFNVKPTCLINNAAYIATTALSHPIEVENNFPCSLYKDEIMKEIERESKRIKLNDNDDEGNKKIIAPRIFISDDKDSLKCPCDPEMVSNSACRFFVCKCVERRAEVTSNNEVVVKEEYKDEYADIPEHKPT
modifications: bait human Fc-tagged dimer
B8: 82 (protein)
chain: GLCKPCTLENHYCEGGLESDITFNNKLIKGKFHTLPKKCPRGLGIPNIIKERNSINNCLCIHGKVQRTTENKNVECFPCPPNTFKENEYDNSCSGACPPFSTTFVGSSYENQCFCKNNYYLVSTDDENDANGNSINNNKNIYNNNNIYNNNNNNNNNNNNNFNNKADVKKKSCKICPIGAICNRGFNIYIYLKLLNDRSYNNINVIDHETPFPKYGYYAVYREKTNPAKSWDTLDDSAILNYVYPYHKLLLFIQKNIQKGNYFFLEKGNKFFLNDDFVEKMNEKSKYEEENANKFVTKSEIIHNVNTNNLKGKHNTLNNNNNNNNINKASSFLNQNNYNNDIIQLSSYENNPFKNLASTSEVSSNNNVISFIQNNDKTNNAANDNNIENLVDIFNKYVQEAKELQIQNRKFERIPDIHPCTIPNRCLGTLINLCSDGSTGYQCNNCAKNYDMSYFKSKCKKCQNLFYE
modifications: bait human Fc-tagged dimer
B9: 36 (protein)
chain: QDEKSVKNICVCDFTDKLNFLPLEKTKILCELKPQYGEDIKIIANKEYEINCMNNAKVFCPLKDTFINNANIKLYSPKLHFEIKDITHKGKNAALYYLKIDEEASDIFFSCSIKPKQVSGLLEGEVRVNLKKHINEEYSIFNEEEDVHVCDFSKGNLDITPSAGFYLKNSRNVACIYRVIPNKLFLIKLPKLDIVTEKLLPSIVNCLSEFSFINFALKHVQEGDNYISFNVIFGEFKKHFNLACSLDLSDFQQEPCNLGKTANIAFIFSK
modifications: bait human Fc-tagged dimer
B10: 70 (protein)
chain: NTYIYLKQDSFVFSNEFPTVEEKNQALGENYEIVTLTTKDNHKFTCWYIKTKDSENKPIMLYFQGNGGYLEKYMNLFNLIIERVDVNIFSCSNRGCGSNIAKPSEEYFYKDAHVYIEYVKTKNPKHLFIFGSSMGAAVAIDTALKQHDHISGLIVQNAFTSLKELSRYSHPFLNYFLFDYDMIIRSKMDNEAKIKNIAVPTLFTLSEMDEKVPTSHTRTLFQLSASTNKQLYLSKGGTHPNILKNDDGSYHKAMKKFIVTAISIREKNIQKAVERNPNTPN
modifications: bait human Fc-tagged dimer
B11: 39 (protein)
chain: GTIEIKLSEFVGDSVNLAAKLHGFFLELNVNIAFTVICSNGMKALNGICIPCPLGSYNNINEYIKNNNIYECTLCHNNAATKNEGSTSISQCLCLPGYELNNNDLCVPCKRGTWKTKLSNSPCIFHCYPNSYSLVQGSRSEEESKCKCKRGFYFVSKDSINFCDNCNIGYFCPGGYKIGEKKCPKNTANIAQNNFAISSCKCDVGFEPFDSSNLNAYNFKNDPIFNDYKDFLDDVKSSQICVPCKEGFYKNTVSEEKCKRCSDNVYTDGLQSTSISNCKKCEKGYYLQSEDSCIICPDNHYCPGAYINDPKYAIYENQKIPCGDKSLTIPPNNLNVAHLNCLCKKGFEFIKTDDNEFDCLEVPKNYYKSHLGNKEKEPCPENSVTLYTQTKSKVKCLCMPGYYWDLKEFKCIKCPKGHYCPGGYLKNCFNNQNLHSCKPQKKKCPLKNSATQTKESFSQSSCLCDKGYTINKEELRECIPCPINTYKDVISNAECTKCLTPYTTDGQIGSTKEEDCTCSGGFFFLNHCLPCSDKNTYCKGGKMIVNNKNKAIHYGPSKCPPNTAVSFETERPYNKGFCVCQKGFKHVYTTSDFTKICAPCERGFFKTIIGDFSCESKCKPNSASFVGTIHETHCFCLENYYFKNGICLNCPDGAYCEGGFQKETLLYMKKNEYYLDTSKIKHIMPVPKENYALYKLKTNIYNTDWFIVECPIKEACLYNEKCHESMTNFLCGECKKGYTNNFAKLNLCIKCSGHIMN
modifications: bait human Fc-tagged dimer
B12: 11 (protein)
chain: LKVPIENAPFVFNKKENDIKYFLDKETPDDFLSNNAYSLDITLENFPNPFFHPSLCNRYGFKFSYICDPNKILSRNIADQIEEILNYQRRNSKHFCVDKEVPYVLGVALINKLPYGISADTFASQIFEYWKLSNKDCNDGVLLFFVKEDTHFILKWKKGAQSIINFRTATSMNKAFNQYLRKYSLEYSILSAVKLTSQYLTEEIIPPTQTAQK
modifications: bait human Fc-tagged dimer

biological target: FGFR4 ectodomain (Homo sapiens, UniProt P22455); assay: AVEXIS normalised luminescence

| Binder | binding score |
| --- | --- |
| B1 | 1.03 |
| B2 | 0.958 |
| B3 | 0.821 |
| B4 | 1.16 |
| B5 | 0.719 |
| B6 | 1.23 |
| B7 | 1.43 |
| B8 | 1.25 |
| B9 | 0.937 |
| B10 | 0.951 |
| B11 | 0.948 |
| B12 | 1.58 |
